Patent US6972319B1, “Pituitary adenylate cyclase activating peptide (PACAP)receptor 3 (R3) agonists and their pharmacological methods of use” (priority 1999, dated 2005)
Positions count from the first letter of the chain named. Each block holds one molecule with its values, some of them ahead of it.

Assays:
PACAP-R2 = biological target: T1, PACAP-R2 (Homo sapiens, UniProt P32241); test: Cyclic AMP SPA on CHO cells transfected with PACAP-R2; assay type: cell-based; details: cAMP SPA, concentration at which 50% of maximum PACAP27 activity is achieved, NA = no detectable activities, read-out: R2 EC50
T1 construct: expressed in transfected cells; host or cells: CHO cells
T1 sequence (P32241 31-457): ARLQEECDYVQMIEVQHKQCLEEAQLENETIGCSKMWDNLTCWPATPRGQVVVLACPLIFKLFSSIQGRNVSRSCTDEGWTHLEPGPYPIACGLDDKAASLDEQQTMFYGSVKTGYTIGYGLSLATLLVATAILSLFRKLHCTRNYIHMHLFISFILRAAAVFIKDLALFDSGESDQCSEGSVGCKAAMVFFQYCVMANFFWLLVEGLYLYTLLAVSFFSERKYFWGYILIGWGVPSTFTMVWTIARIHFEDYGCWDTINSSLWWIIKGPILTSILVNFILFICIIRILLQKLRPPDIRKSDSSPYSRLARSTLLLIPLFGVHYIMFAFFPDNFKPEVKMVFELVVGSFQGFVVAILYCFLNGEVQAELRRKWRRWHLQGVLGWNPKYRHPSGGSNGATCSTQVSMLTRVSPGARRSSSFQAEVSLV
Description: CHO cells expressing the PACAP R3 were plated in 96-well plates (Costar) at 8×10^4 cell/well and grown at 37 C. for 24 hours in α MEM+nucleosides+glutamine (Giobco BRL), 10% FBS, 100 μg/ml Pen/Strep, 0.3 mg/ml glutamine, 1 mM HEPES, 0.5 mg/ml Geneticin (Gibco BRL). The media was removed and the plates were washed with PBS. The cells were incubated with a peptide, in Hepes-PBS-BSA with 0.4 mg/mlSoybean Trypsin Inhibitor, 0.5 mg/ml Bacitracin, 100 uM IBMX, for 15 min at 37 C. Cyclic AMP in the cell extracts was quantitated using the cAMP SPA direct screening assay system (Amersham Pharmacia Biotech Inc, Piscataway, N.J.,). The peptides shown in Table 3 were assayed for cAMP activity.
EC50 is defined as the concentration of the polypeptide at which 50% of maximum PACAP27 activity is achieved. “NA” denotes no detectable activities. “R3 Selectivity” is derived from the ratio of EC50 at R2 versus EC50 at R3.

PACAP-R3 = biological target: T2, PACAP-R3 (human, UniProt P41587 24-438); test: cell-based or functional assay
T2 sequence (looked up): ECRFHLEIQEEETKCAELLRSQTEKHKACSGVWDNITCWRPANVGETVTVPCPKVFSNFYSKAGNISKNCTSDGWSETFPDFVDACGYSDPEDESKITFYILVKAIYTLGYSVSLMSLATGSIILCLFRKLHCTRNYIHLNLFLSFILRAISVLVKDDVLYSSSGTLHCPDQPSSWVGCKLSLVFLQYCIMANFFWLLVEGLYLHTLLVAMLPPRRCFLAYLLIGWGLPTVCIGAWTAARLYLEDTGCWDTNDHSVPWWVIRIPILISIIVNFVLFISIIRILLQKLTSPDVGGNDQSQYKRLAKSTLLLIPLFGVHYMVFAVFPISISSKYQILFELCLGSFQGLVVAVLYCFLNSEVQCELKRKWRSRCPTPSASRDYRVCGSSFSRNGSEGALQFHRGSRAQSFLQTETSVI

B1: R3P41 (peptide)
peptide: HSDAVFTDNYTRLRKQMAVKKYLNSIKK
R3 EC50 (PACAP-R3): 80 pM
R3 Selectivity (PACAP-R3): 100

B2: R3P19 (peptide)
peptide: HSDAVFTENYTKLRKQLAAKKYLNDLKKGGTSWCEPGWCR
R3 EC50 (PACAP-R3): 1400 pM
R3 Selectivity (PACAP-R3): 30

B4: R3P35 (peptide)
peptide: HSDAVFTDNYTRLRKQLAAKKYLNDIKKNQ
R3 EC50 (PACAP-R3): 2600 pM
R3 Selectivity (PACAP-R3): > 40

B6: R3P20 (peptide)
peptide: HSDAVFTDNYTRLRKQMAAKKYLNDIKKGGT
R3 EC50 (PACAP-R3): 1400 pM
R3 Selectivity (PACAP-R3): 230

B7: R3P26 (peptide)
peptide: B6 peptide with D25S
R3 EC50 (PACAP-R3): 550 pM
R3 Selectivity (PACAP-R3): > 180

B8: R3P21 (peptide)
peptide: B6 peptide with M17L, A19V
R3 EC50 (PACAP-R3): 300 pM
R3 Selectivity (PACAP-R3): 60

B9: R3P30 (peptide)
peptide: B6 peptide with M17L, D25S, K28N
R3 EC50 (PACAP-R3): 400 pM
R3 Selectivity (PACAP-R3): 50

B10: R3P29 (peptide)
peptide: B6 peptide with M17L, A19V, K28N
R3 EC50 (PACAP-R3): 500 pM
R3 Selectivity (PACAP-R3): > 200

B11: R3P22 (peptide)
peptide: B6 peptide with M17L, D25S
R3 EC50 (PACAP-R3): 1600 pM
R3 Selectivity (PACAP-R3): 24

B12: R3P25 (peptide)
peptide: B6 peptide with M17L, A19V, D25S
R3 EC50 (PACAP-R3): 700 pM
R3 Selectivity (PACAP-R3): 20

B13: R3P32 (peptide)
peptide: HSDAVFTDNYTRLRKQLAAKKYLNDIKKG
R3 EC50 (PACAP-R3): 400 pM
R3 Selectivity (PACAP-R3): 200

B15: R3P31 (peptide)
peptide: B4 peptide with N29G, Q30G
R3 EC50 (PACAP-R3): 300 pM
R3 Selectivity (PACAP-R3): > 300

B18: R3P34 (peptide)
peptide: HSDAVFTDNYTRLRKQLAAKKYLNDIKKQ
R3 EC50 (PACAP-R3): 1400 pM
R3 Selectivity (PACAP-R3): > 70

B21: R3P36 (peptide)
peptide: HSDAVFTDNYTRLRKQLAAKKYLNDIKKKRY
R3 EC50 (PACAP-R3): 400 pM
R3 Selectivity (PACAP-R3): > 200

B24: R3P33 (peptide)
peptide: HSDAVFTDNYTRLRKQLAAKKYLNDIKK
R3 EC50 (PACAP-R3): 500 pM
R3 Selectivity (PACAP-R3): > 200

The next lines start with the values.

EC50 (PACAP-R2): 2000 pM
Molecule: CC[C@H](C)[C@H](NC(=O)[C@H](CO)NC(=O)[C@H](CC(N)=O)NC(=O)[C@H](CC(C)C)NC(=O)[C@H](Cc1ccc(O)cc1)NC(=O)[C@H](CCCCN)NC(=O)[C@H](CCCCN)NC(=O)[C@H](CCSC)NC(=O)[C@H](C)NC(=O)[C@H](CCSC)NC(=O)[C@H](CCC(N)=O)NC(=O)[C@H](CCCCN)NC(=O)[C@H](CCCNC(=N)N)NC(=O)[C@H](CC(C)C)NC(=O)[C@H](CCCNC(=N)N)NC(=O)[C@@H](NC(=O)[C@H](Cc1ccc(O)cc1)NC(=O)[C@H](CC(N)=O)NC(=O)[C@H](CC(=O)O)NC(=O)[C@@H](NC(=O)[C@H](Cc1ccccc1)NC(=O)[C@@H](NC(=O)[C@H](C)NC(=O)[C@H](CC(=O)O)NC(=O)[C@H](CO)NC(=O)[C@@H](N)Cc1c[nH]cn1)C(C)C)[C@@H](C)O)[C@@H](C)O)C(=O)N[C@@H](CCCCN)C(=O)N[C@@H](CC(N)=O)C(=O)N[C@@H](CCCCN)C(=O)N[C@@H](CCCNC(=N)N)C(=O)O [Peptide R3P106]

EC50 (PACAP-R2): 4000 pM
Molecule: CC[C@H](C)[C@H](NC(=O)[C@H](CO)NC(=O)[C@H](CC(N)=O)NC(=O)[C@H](CC(C)C)NC(=O)[C@H](Cc1ccc(O)cc1)NC(=O)[C@H](CCCCN)NC(=O)[C@H](CCCCN)NC(=O)[C@@H](NC(=O)[C@H](C)NC(=O)[C@H](CCSC)NC(=O)[C@H](CCC(N)=O)NC(=O)[C@H](CCCCN)NC(=O)[C@H](CCCNC(=N)N)NC(=O)[C@H](CC(C)C)NC(=O)[C@H](CCCNC(=N)N)NC(=O)[C@@H](NC(=O)[C@H](Cc1ccc(O)cc1)NC(=O)[C@H](CC(N)=O)NC(=O)[C@H](CC(=O)O)NC(=O)[C@@H](NC(=O)[C@H](Cc1ccccc1)NC(=O)[C@@H](NC(=O)[C@H](C)NC(=O)[C@H](CC(=O)O)NC(=O)[C@H](CO)NC(=O)[C@@H](N)Cc1c[nH]cn1)C(C)C)[C@@H](C)O)[C@@H](C)O)[C@@H](C)O)C(=O)N[C@@H](CCCCN)C(=O)N[C@@H](CC(N)=O)C(=O)N[C@@H](CCCCN)C(=O)N[C@@H](CCCNC(=N)N)C(=O)O [Peptide R3P112]

EC50 (PACAP-R2): 3000 pM
Molecule: CC[C@H](C)[C@H](NC(=O)[C@H](CO)NC(=O)[C@H](CC(N)=O)NC(=O)[C@H](CC(C)C)NC(=O)[C@H](Cc1ccc(O)cc1)NC(=O)[C@H](CCCCN)NC(=O)[C@H](CCCCN)NC(=O)[C@@H](NC(=O)[C@H](C)NC(=O)[C@H](CCSC)NC(=O)[C@H](CCC(N)=O)NC(=O)[C@H](CCCCN)NC(=O)[C@H](CCCNC(=N)N)NC(=O)[C@H](CC(C)C)NC(=O)[C@H](CCCNC(=N)N)NC(=O)[C@@H](NC(=O)[C@H](Cc1ccc(O)cc1)NC(=O)[C@H](CC(N)=O)NC(=O)[C@H](CC(=O)O)NC(=O)[C@@H](NC(=O)[C@H](Cc1ccccc1)NC(=O)[C@@H](NC(=O)[C@H](C)NC(=O)[C@H](CC(=O)O)NC(=O)[C@H](CO)NC(=O)[C@@H](N)Cc1c[nH]cn1)C(C)C)[C@@H](C)O)[C@@H](C)O)C(C)C)C(=O)N[C@@H](CCCCN)C(=O)N[C@@H](CC(N)=O)C(=O)N[C@@H](CCCCN)C(=O)N[C@@H](CCCNC(=N)N)C(=O)O [Peptide R3P113]

R3 EC50 (PACAP-R3): 200 pM
B3: R3P163 (peptide)
peptide: HSDAVFTDNYTRLRKQMAAKKYLNSIKNKM

R3 EC50 (PACAP-R3): 30 pM
R3 Selectivity (PACAP-R3): 10
B5: R3P42 (peptide)
peptide: HSDAVFTDNYTRLRKQMAVKKYLNSIKN

R3 EC50 (PACAP-R3): 200 pM
R3 Selectivity (PACAP-R3): 300
B14: R3P161 (peptide)
peptide: B3 peptide with M30K

R3 EC50 (PACAP-R3): 80 pM
R3 Selectivity (PACAP-R3): 10
B16: R3P43 (peptide)
peptide: HSDAVFTDNYTRLRKQMAVKKYLNSILK

R3 EC50 (PACAP-R3): 300 pM
R3 Selectivity (PACAP-R3): 170
B17: R3P157 (peptide)
peptide: B3 peptide with M30F

R3 EC50 (PACAP-R3): 200 pM
R3 Selectivity (PACAP-R3): 500
B19: R3P160 (peptide)
peptide: B3 peptide with M30I

R3 EC50 (PACAP-R3): 70 pM
R3 Selectivity (PACAP-R3): 90
B20: R3P158 (peptide)
peptide: B3 peptide with M30G

R3 EC50 (PACAP-R3): 300 pM
R3 Selectivity (PACAP-R3): 300
B22: R3P164 (peptide)
peptide: B3 peptide with M30N

R3 EC50 (PACAP-R3): 500 pM
R3 Selectivity (PACAP-R3): 400
B23: R3P159 (peptide)
peptide: B3 peptide with M30H
